Experimental findings from patent US20260029420A1 (Hoffmann-La Roche, published 2026) are described below.

One experiment has as its target T1, human CB2 (full length) (human, UniProt P34972 1-360).
T1 construct: whole, on cells; In Western blot and immunoprecipitation the protein stood in cell lysate; also called hCB2; CHODukx CRE hCB2 Cl.90
In words: flow cytometry, CHO-DUKX_HOMSA_CNR2_Clone_90_CRE-Luc cells against CHO-DUKX parental cells. The text has this:
For detection an F(ab)₂ goat-anti Mouse IgG₃ PE antibody was used.

The target of a further experiment is T2, human CB1 (full length) (human, UniProt P21554 1-472).
T2 construct: whole, on cells; In Western blot and immunoprecipitation the protein stood in cell lysate; also called hCB1; CHODukx CRE hCB1 Cl.20
T2 sequence (P21554 whole entry): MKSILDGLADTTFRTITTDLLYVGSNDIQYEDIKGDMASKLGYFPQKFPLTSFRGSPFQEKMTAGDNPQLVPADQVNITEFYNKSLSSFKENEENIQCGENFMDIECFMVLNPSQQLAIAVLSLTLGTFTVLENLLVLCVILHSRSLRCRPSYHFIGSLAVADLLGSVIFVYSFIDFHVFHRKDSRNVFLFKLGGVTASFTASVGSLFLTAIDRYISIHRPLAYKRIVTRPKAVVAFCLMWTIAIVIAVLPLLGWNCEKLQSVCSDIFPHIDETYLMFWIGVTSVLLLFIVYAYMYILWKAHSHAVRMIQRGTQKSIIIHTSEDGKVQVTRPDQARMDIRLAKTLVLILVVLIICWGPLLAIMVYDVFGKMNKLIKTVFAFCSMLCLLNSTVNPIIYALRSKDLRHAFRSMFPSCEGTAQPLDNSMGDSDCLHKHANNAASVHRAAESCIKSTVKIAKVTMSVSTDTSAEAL
In words: immunofluorescence, fixed cells. The method, then: (§1) For IF analysis, methanol-fixed cells were incubated for 20 min in a humid chamber at 37° C. with the respective hCB2 and mCB2 clones. After rinsing twice and washing for 15 min in PBS, 125 μg/ml FITC-conjugated […] anti-mouse IgG antibodies (RAM/IgG (H+L)/FITC, Nordic

A further experiment addresses T3, Mouse_CB2-pANITA3.1 (mouse).
T3 construct: Fusion of the mouse CB2 N-terminal extracellular domain with mouse glycophorin A transmembrane and His-tagged cytoplasmic domains; Expressed on transfected HEK293 cells; also called pANITA3.1 mCB2 (JB176); mCB2 (JB176)
The experiment in a line: immunofluorescence, fixed cells. How it is done: as §1

In a further experiment the target is T4, mouse CB2 (full length) (mouse, UniProt P47936 1-347).
T4 construct: whole, on cells; In Western blot and immunoprecipitation the protein stood in cell lysate; also called mCB2; CHO-A2 mCB2
T4 sequence (P47936 whole entry): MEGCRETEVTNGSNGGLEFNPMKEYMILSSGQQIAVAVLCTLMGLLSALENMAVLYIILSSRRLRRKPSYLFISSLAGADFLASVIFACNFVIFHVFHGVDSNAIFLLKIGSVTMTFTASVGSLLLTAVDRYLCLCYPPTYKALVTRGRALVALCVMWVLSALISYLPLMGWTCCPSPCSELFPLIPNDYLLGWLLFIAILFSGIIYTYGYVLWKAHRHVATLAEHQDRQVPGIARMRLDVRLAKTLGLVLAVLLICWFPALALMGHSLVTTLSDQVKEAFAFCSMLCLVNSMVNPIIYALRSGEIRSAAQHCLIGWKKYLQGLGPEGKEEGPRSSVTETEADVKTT
The experiment in a line: immunofluorescence, fixed cells. The method, then: as §1

The next experiment has as its target T5, Human_CB2-pANITA3.1 (human).
T5 construct: Expressed on transfected HEK293 cells; tested on fixed cells (IF) or in lysate (WB, IP); also called pANITA3.1 hCB2 (JB175); hCB2 (JB175)
The experiment in a line: Western blot, cell lysate. How it is done:
For Western blot analysis, cells were collected using enzyme free dissociation buffer (Cell dissociation buffer enzyme-free Hanks'-based, Gibco), and washed two times with PBS. To prepare cell lysate, 10⁶ cells were lysed with 0.1 ml of lysis buffer (1% NP40, 10% glycerol, 2 mM EDTA, 137 mM NaCl, 20 mM TrisHCl, pH8, Protease Inhibitors) for 10 min on ice. The lysate was cleared by centrifugation at 20′000 g for 5 min. For SDS-PAGE cell lysate was resolved on precast 4-12% gradient gels (NuPAGE® Novex 4-12% Bis-Tris Gel, Invitrogen) with MES running buffer according to the manufacturer's directions. The separation of proteins was visualized by Colloidal Blue staining. The proteins were electrophoretically transferred to nitrocellulose membrane using a dry-blotting system (iBlot, Invitrogen). After blocking the membrane for 16 h in blocking buffer (5% Milk in PBS) at 4° C., specific proteins were detected with appropriate dilutions of mAbs in blocking buffer for 1 h at approximately 20° C. The membrane was then washed four times for 5 minutes in blocking buffer and incubated with horseradish peroxidase conjugated anti-mouse IgG mAb (GAM/IgG (g-chain)/HRP, Sigma, A9917) diluted 1:10'000 in blocking buffer at approximately 20° C. for 1 h. After washing again, blots were developed using ECL Western blotting detection reagents (ECL Western Blotting Substrate, Pierce) to visualize bands.

T1 sequence (P34972 whole entry): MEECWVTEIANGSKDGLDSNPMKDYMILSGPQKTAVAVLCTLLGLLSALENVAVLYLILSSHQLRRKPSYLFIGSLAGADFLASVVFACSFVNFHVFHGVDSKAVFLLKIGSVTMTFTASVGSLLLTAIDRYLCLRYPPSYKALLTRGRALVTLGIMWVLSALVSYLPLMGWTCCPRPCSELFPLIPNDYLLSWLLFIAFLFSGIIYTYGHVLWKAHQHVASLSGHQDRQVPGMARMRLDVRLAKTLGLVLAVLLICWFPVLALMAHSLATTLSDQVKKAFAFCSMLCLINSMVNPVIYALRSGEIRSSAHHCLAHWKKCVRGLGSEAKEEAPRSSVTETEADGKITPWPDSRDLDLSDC
T5 sequence (chain, as listed by the source): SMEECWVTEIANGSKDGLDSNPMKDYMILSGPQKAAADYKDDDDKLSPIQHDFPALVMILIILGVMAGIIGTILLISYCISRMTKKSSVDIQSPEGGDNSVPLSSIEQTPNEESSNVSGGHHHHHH
T3 sequence (chain, as listed by the source): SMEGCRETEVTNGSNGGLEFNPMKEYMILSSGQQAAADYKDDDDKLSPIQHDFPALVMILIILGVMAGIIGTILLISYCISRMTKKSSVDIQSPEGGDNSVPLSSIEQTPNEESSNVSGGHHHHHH

B1: Anti-CB2 clone 1/622 (antibody, IgG3, V domains shown)
VH: EVQLQQSGPELVKPGASVKISCKTSGYTFTEYTMHWVRQSHGKSLEWIGGIDRYNGDTYYNQKFKDKATLTVDRSSSTAYMELRSLTSEDSAVYFCARNGAMDYWGQGISVTVSS
VL: DVVMTQTPLSLPVSLGDQASISCRSSQSLVHSNGNTYLHWFLQKPGQSPKLLIYKVSIRFSGVPDRFSGSGSGTDFTLKISRVEAEDLGVYFCSQSTHVPPLTFGAGTKLELKR
With B1, in the experiment with human CB2 (full length), the “signal to background ratio” value was determined as 10. For the same molecule, the binding result with human CB1 (full length) was “no binding”; in the experiment with Mouse_CB2-pANITA3.1 it was “no binding”; with mouse CB2 (full length) it was “no binding”; in the experiment with Human_CB2-pANITA3.1, “binds”.
